Experimental findings from patent US20040009175A1 are described below.

The target in one data set is myc-tagged MEK3. Briefly: cell-based or functional assay.
Data set [1] has as its target Recombinant GST-MEK5 [GST: P08515].
The target of a further data set is GST-MEK4 [GST: P08515]. The data set is described as follows: cell-based or functional assay.

B1: full-length HA-tagged TAO1 (enzyme, not shown: small tags and cut ends)
chain: MPSTNRAGSLKDPEIAELFFKEDPEKLFTDLREIGHGSFGAVYFARDVRTNEVVAIKKMSYSGKQSTEKWQDIIKEVKFLQRIKHPNSIEYKGCYLREHTAWLVMEYCLGSASDLLEVHKKPLQEVEIAAITHGALQGLAYLHSHTMIHRDIKAGNILLTEPGQVKLADFGSASMASPANSFVGTPYWMAPEVILAMDEGQYDGKVDVWSLGITCIELAERKPPLFNMNAMSALYHIAQNESPTLQSNEWSDYFRNFVDSCLQKIPQDRPTSEELLKHMFVLRERPETVLIDLIQRTKDAVRELDNLQYRKMKKLLFQEAHNGPAVEAQEEEEEQDHGGGRTGTVNSVGSNQSIPSMSISASSQSSSVNSLPDASDDKSELDMMEGDHTVMSNSSVIHLKPEEENYQEEGDPRTRASAPQSPPQVSRHKSHYRNREHFATIRTASLVTRQMQEHEQDSELREQMSGYKRMRRQHQKQLMTLENKLKAEMDEHRLRLDKDLETQRNNFAAEMEKLIKKHQASMEKEAKVMANEEKKFQQHIQAQQKKELNSFLESQKREYKLRKEQLKEELNENQSTPKKEKQEWLSKQKENIQHFQAEEEANLLRRQRQYLELECRRFKRRMLLGRHNLEQDLVREELNKRQTQKDLEHAMLLRQHESMQELEFRHLNTIQKMRCELIRLQHQTELTNQLEYNKRRERELRRKHVMEVRQQPKSLKSKELQIKKQFQDTCKIQTRQYKALRNHLLETTPKSEHKAVLKRLKEEQTRKLAILAEQYDHSINEMLSTQALRLDEAQEAECQVLKMQLQQELELLNAYQSKIKMQAEAQHDRELRELEQRVSLRRALLEQKIEEEMLALQNERTERIRSLLERQAREIEAFDSESMRLGFSNMVLSNLSPEAFSHSYPGASSWSHNPTGGSGPHWGHPMGGTPQAWGHPMQGGPQPWGHPSGPMQGVPRGSSIGVRNSPQALRRTALGGRTEQGMSRSTSVTSQISNGSHMSYT
In the data set with myc-tagged MEK3, B1 registered an MEK3 activity in anti-myc immunoprecipitates from co-transfected 293 cells of 3 to 4 fold and an activity toward p38 of myc-tagged MEK3 immunoprecipitated from co-transfected 293 cells of 3 fold.

B2: (His)6TAO1(1-416) (protein)
chain: MRGSHHHHHHMPSTNRAGSLKDPEIAELFFKEDPEKLFTDLREIGHGSFGAVYFARDVRTNEVVAIKKMSYSGKQSTEKWQDIIKEVKFLQRIKHPNSIEYKGCYLREHTAWLVMEYCLGSASDLLEVHKKPLQEVEIAAITHGALQGLAYLHSHTMIHRDIKAGNILLTEPGQVKLADFGSASMASPANSFVGTPYWMAPEVILAMDEGQYDGKVDVWSLGITCIELAERKPPLFNMNAMSALYHIAQNESPTLQSNEWSDYFRNFVDSCLQKIPQDRPTSEELLKHMFVLRERPETVLIDLIQRTKDAVRELDNLQYRKMKKLLFQEAHNGPAVEAQEEEEEQDHGGGRTGTVNSVGSNQSIPSMSISASSQSSSVNSLPDASDDKSELDMMEGDHTVMSNSSVIHLKPEEENYQEEGDPRTRA
For B2, the “enhancement of the ability of MEK3 to phosphorylate p38 (in vitro linked kinase assay)” value in the data set with (His)6MEK3 is “approximately 100-fold”. In the data set with GST-MEK6 [GST: P08515], the “increase of the ability of GST-MEK6 to phosphorylate (His)6p38 (in vitro linked kinase assay)” value is on record as “by 5-fold”. Moreover, the “activity of MEK1 towards the substrate (His)6ERK2 (in vitro linked kinase assay)” value in the data set with MEK1 is “completely unable to increase the activity of MEK1 or MEK2 towards the substrate (His)6ERK2”. Besides, the “activity of MEK2 towards the substrate (His)6ERK2 (in vitro linked kinase assay)” value with MEK2 was “completely unable to increase the activity of MEK1 or MEK2 towards the substrate (His)6ERK2”. The “phosphorylation of GST-MEK5 (in vitro kinase assay)” value in data set [1] is given as “Recombinant GST-MEK5 was not phosphorylated by (His)6TAO1(1-416)”. In the data set with GST-MEK4 [GST: P08515], this molecule showed an activation of GST-MEK4 toward (His)6p38 (in vitro linked kinase assay) of 5 fold and an activation of GST-MEK4 towards GST-SAPKβ (in vitro linked kinase assay) of 150 fold.
